Biological target: CAR (receptor of the wild-type Ad) (human) (UniProt P78310)
Assay: cell-based or functional assay

Chain of UniProt P78310 (P78310 20-365): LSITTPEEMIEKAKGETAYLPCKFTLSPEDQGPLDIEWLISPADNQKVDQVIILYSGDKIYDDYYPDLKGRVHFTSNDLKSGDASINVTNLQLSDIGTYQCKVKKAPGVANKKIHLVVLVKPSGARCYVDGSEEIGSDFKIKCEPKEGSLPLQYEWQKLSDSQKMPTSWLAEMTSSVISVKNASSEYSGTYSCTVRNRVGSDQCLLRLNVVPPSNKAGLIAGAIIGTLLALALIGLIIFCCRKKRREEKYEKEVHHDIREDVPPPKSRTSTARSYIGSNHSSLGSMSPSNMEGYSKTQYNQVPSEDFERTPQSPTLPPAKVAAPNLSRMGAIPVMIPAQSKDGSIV

For Ad knob protein, the decrease of intracellular introduction efficiency (GFP expression, flow cytometry) of wild-type Ad (naked dE1/GFP) in MIA PaCa-2 cells pre-treated with knob protein at 0.2 ug/mL was 76% and the decrease of intracellular introduction efficiency (GFP expression, flow cytometry) of wild-type Ad (naked dE1/GFP) in MIA PaCa-2 cells pre-treated with knob protein at 1 ug/mL was 92%.

— patent US20180296701A1
